Assays:
Assay in all cases: pulldown
Details in all cases: 20 nM protein, 1.5 uM RNA pool; 20 mM HEPES pH 7.8, 70 mM KCl, 10 mM NaCl, 10% glycerol, 2 mM DTT, 0.1 ug/uL BSA; 30 min, 4 C
[1] = target: T1, sart3 (Tetraodon nigroviridis) (UniProt H3DEK9)
T1 sequence: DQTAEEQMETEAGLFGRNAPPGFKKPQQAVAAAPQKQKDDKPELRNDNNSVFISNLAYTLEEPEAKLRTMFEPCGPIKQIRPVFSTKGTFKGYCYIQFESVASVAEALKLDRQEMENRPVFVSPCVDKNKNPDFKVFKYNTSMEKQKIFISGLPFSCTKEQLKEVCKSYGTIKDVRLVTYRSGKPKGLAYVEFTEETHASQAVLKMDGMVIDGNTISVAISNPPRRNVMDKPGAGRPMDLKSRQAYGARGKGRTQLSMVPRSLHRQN

[2] = target: RBPMS2 (Monodelphis domestica) (UniProt A0A5F8GJ20)
[3] = target: T2, PK21582.1 S73F;V173L (Cannabis sativa) (UniProt A0A7J6HF55)
T2 sequence: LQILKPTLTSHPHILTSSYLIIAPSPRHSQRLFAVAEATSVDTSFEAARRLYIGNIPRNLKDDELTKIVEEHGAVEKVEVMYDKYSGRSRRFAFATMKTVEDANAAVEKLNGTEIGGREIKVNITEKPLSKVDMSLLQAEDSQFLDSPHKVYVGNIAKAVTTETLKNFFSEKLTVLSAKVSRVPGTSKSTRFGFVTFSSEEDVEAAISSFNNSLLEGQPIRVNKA

[4] = target: T3, LmjF.30.1110 (Leishmania major) (UniProt Q4Q7J2)
T3 sequence: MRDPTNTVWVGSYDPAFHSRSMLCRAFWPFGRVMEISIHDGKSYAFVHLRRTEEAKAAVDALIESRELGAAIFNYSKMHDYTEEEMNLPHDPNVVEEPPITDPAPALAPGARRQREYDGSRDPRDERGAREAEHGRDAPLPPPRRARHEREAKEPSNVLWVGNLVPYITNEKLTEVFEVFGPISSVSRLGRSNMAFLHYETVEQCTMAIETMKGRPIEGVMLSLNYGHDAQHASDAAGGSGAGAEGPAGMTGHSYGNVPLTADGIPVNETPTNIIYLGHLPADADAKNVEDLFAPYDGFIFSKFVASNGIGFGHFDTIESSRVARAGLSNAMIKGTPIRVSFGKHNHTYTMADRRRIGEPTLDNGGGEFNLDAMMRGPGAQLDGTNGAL

[5] = target: T4, PK00353.1 del132-144;P293S (Cannabis sativa) (UniProt A0A7J6GFS8)
T4 sequence: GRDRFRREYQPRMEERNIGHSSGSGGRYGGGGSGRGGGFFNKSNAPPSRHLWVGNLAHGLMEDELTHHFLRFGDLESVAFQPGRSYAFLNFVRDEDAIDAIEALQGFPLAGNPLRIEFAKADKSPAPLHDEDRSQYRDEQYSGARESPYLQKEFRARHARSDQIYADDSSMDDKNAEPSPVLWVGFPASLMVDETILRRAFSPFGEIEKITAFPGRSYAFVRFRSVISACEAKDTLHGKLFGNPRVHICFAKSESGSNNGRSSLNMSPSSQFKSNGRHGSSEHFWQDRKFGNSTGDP

[6] = target: T5, LmjF.29.1370 (Leishmania major) (UniProt E9ADZ6)
T5 sequence: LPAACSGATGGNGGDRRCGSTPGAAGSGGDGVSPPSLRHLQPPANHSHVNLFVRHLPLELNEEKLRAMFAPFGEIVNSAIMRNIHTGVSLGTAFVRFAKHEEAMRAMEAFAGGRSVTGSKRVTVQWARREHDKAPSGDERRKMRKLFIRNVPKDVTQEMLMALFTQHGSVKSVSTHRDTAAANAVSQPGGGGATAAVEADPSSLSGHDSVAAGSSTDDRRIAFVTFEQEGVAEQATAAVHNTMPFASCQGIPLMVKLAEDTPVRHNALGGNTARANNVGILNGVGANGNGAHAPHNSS

[7] = target: T6, CG4806 (Drosophila melanogaster) (UniProt Q3ZAN6)
T6 sequence: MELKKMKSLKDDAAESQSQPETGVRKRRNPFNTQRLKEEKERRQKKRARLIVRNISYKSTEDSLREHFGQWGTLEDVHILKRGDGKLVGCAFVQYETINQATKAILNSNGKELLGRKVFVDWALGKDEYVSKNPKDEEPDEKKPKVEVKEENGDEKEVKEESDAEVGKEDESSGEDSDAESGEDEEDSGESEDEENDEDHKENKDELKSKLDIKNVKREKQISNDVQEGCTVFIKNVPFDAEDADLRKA

[8] = target: T7, Tb11.01.5690 S174N (Trypanosoma brucei) (UniProt Q382C7)
T7 sequence: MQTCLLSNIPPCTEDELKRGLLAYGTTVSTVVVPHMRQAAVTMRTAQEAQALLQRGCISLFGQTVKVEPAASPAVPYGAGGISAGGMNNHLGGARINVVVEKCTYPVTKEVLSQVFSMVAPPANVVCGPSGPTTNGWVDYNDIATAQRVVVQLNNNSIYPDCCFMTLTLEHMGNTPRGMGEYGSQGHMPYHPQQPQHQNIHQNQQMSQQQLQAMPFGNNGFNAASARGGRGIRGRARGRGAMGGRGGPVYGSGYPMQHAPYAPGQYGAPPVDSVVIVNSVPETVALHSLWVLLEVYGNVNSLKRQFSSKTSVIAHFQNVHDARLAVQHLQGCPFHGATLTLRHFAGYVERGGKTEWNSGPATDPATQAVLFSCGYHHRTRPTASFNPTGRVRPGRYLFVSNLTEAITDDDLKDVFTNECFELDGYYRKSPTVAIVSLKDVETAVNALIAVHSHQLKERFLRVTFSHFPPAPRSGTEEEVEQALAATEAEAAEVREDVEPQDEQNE

[9] = target: T8, TBPH (Drosophila melanogaster) (UniProt E1JGV0)
T8 sequence: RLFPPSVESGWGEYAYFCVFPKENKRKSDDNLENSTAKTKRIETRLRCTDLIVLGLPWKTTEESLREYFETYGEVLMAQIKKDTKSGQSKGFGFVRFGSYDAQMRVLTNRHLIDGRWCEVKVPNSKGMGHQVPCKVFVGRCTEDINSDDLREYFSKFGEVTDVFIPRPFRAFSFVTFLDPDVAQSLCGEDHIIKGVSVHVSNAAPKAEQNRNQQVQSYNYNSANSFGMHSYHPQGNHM

RBPMS2 (Monodelphis domestica), sequence (A0A5F8GJ20 entry or part of it): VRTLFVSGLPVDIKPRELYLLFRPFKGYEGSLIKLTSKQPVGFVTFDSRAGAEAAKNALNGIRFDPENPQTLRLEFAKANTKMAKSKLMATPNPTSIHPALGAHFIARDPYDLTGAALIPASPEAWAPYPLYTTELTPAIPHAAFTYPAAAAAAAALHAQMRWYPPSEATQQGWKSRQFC

For AGAGAAG [RNAcompete motif RNCMPT00774], the binding signal (z-score (mean of top ten 7-mers)) [1] was 11.5.
ANCACG [RNAcompete motif RNCMPT00757] gave a binding signal (z-score (mean of top ten 7-mers)) [2] of 8.74.
ANUGGAA [RNAcompete motif RNCMPT00792] was tested, and the binding signal (z-score (mean of top ten 7-mers)) [3] was 10.3.
In the case of AUGAUG [RNAcompete motif RNCMPT00763], the binding signal (z-score (mean of top ten 7-mers)) [4] is reported as 10.7.
Substance CAAAGCA [RNAcompete motif RNCMPT00789] has a binding signal (z-score (mean of top ten 7-mers)) [5] of 7.23.
For CAUAGU [RNAcompete motif RNCMPT00762], the binding signal (z-score (mean of top ten 7-mers)) [6] was 29.8.
Work on CUGUAGUA [RNAcompete motif RNCMPT00784] yielded a binding signal (z-score (mean of top ten 7-mers)) [7] of 7.2.
GAAAGAAA [RNAcompete motif RNCMPT00773] gave a binding signal (z-score (mean of top ten 7-mers)) [8] of 9.18.
GANUGA [RNAcompete motif RNCMPT00776] gave a binding signal (z-score (mean of top ten 7-mers)) [9] of 9.14.

From article PMC12990809
